Source: the supplement of paper PMC10567573

B1: NECAB1 (parent)
chain: FSPNSPQFNVSGPGLLEEDNQWMT
B2: NET1 (parent)
chain: RVRPLARVTSLANLISPVRNGAVR

Variants of: B1
Assay: protein stability index of a GFP-peptide fusion (GPS, HEK-293T) (PSI 1-6); higher = more stable
Details: c terminus: a fixed tail appended
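Further: lentivirally expressed fusions sorted by FACS into six bins by GFP to DsRed ratio, PSI derived from sequencing read proportions per bin multiplied by bin number.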

Point of comparison: FSPNSYQFNVSGPGLLEEDNQWMT, protein stability index 1.92. Against it:
- FSPNSPQFKVSGPGLLEEDNQWMT — higher, 2.84
- FSPNSPQFCVSGPGLLEEDNQWMT — higher, 2.13
- FSNNSPQFNVSGPGLLEEDNQWMT — higher, 2.76
- FSCNSPQFNVSGPGLLEEDNQWMT — higher, 2.33
- FSINSPQFNVSGPGLLEEDNQWMT — higher, 3.33
- FSMNSPQFNVSGPGLLEEDNQWMT — higher, 3.22
- FSPNSPQFNYSGPGLLEEDNQWMT — higher, 2.89
- FSPNSPQFNESGPGLLEEDNQWMT — higher, 4.16
- FSPNSPQFNVSGPGLLEEFNQWMT — higher, 2.12
- FSPNSPQFNVSGPGLLEEENQWMT — higher, 2.78
- FSPNSPQFNVSGPGLLEEVNQWMT — higher, 2.1
- FSPNSPQFNVSGPGLLEEYNQWMT — higher, 2.44
- FSPNSPQFNVSGPGLLEERNQWMT — higher, 1.94
- FSPNSPQFNVSGPGLLEEDNQSMT — higher, 4.03
- FSPNSPQFNVSGPGLLEEDNQVMT — higher, 3.79
- FSPNSPQFNVSGPGLLEEDNQGMT — higher, 3.85
- FSPNSPQFNVSGPGLLEEDNQYMT — higher, 3.49
- FSPNSPQFNVSGPGLLEEDNQQMT — higher, 4.03
- FSPNSPQFNVSGPGLLEEDNQLMT — higher, 3.71
- FSPNSPQFNVSGSGLLEEDNQWMT — higher, 3.02
- FSPNSPQFNVSGIGLLEEDNQWMT — higher, 3.27
- FSPNSPQFNVSGTGLLEEDNQWMT — higher, 3.32
- FSPNSPMFNVSGPGLLEEDNQWMT — higher, 2.02
- FSPNSPFFNVSGPGLLEEDNQWMT — higher, 2.59
- FSPNSPWFNVSGPGLLEEDNQWMT — higher, 2.64
- FSPNSPNFNVSGPGLLEEDNQWMT — higher, 2.89
- FSPNSPKFNVSGPGLLEEDNQWMT — higher, 2.27
- FSPNMPQFNVSGPGLLEEDNQWMT — higher, 3.66
- FSPNVPQFNVSGPGLLEEDNQWMT — higher, 2.75
- FSPNKPQFNVSGPGLLEEDNQWMT — higher, 2.82
- FSPNPPQFNVSGPGLLEEDNQWMT — higher, 3.39
- FSPNSPQFNVSGPGDLEEDNQWMT — higher, 3.7
- FSPNSPQFNVSGPGMLEEDNQWMT — higher, 3.22
- FSPNSPQFNVSGPGQLEEDNQWMT — higher, 3.06
- FSPNSPQFNVSGPGPLEEDNQWMT — higher, 2.98
- FSPNSPQFNVSGPGRLEEDNQWMT — higher, 2.51
- FSPNSPQFNVSGPGELEEDNQWMT — higher, 3.46
- FSPNSPQFNVSGPGILEEDNQWMT — higher, 2.98
- FSPNSPQFNVSGPGLLEEDRQWMT — higher, 2.88
- FSPNSPQFNVSGPGLKEEDNQWMT — higher, 2.94
- FSPNSPQFNVSGPGLYEEDNQWMT — higher, 2.73
- FSPNSPQFNVSGPGLCEEDNQWMT — higher, 3.03
- FSPNSPQFNVSGPGLPEEDNQWMT — higher, 3.52
- FSPNSPQFNVSGPGLQEEDNQWMT — higher, 3.54
- FSPNSPQFNVSGPGLHEEDNQWMT — higher, 3.98
- FSPNSDQFNVSGPGLLEEDNQWMT — higher, 2.82
- FSPNSMQFNVSGPGLLEEDNQWMT — higher, 2.03
- FSPNSKQFNVSGPGLLEEDNQWMT — higher, 2.5
- KSPNSPQFNVSGPGLLEEDNQWMT — higher, 4.43
- SSPNSPQFNVSGPGLLEEDNQWMT — higher, 4.75
- DSPNSPQFNVSGPGLLEEDNQWMT — higher, 4.53
- ASPNSPQFNVSGPGLLEEDNQWMT — higher, 4.01
- FSPNSPQFNVSGPGLLELDNQWMT — higher, 2.03
- FSPNSPQFNVSGPGLLEMDNQWMT — higher, 2.65
- FSPNSPQFNVSGPGLLERDNQWMT — higher, 2.14
- FSPNSPQFNVSGPGLLEWDNQWMT — higher, 2.14
- FSPNSPQENVSGPGLLEEDNQWMT — higher, 4.44
- FSPNSPQKNVSGPGLLEEDNQWMT — higher, 3.78
- FSPNSPQVNVSGPGLLEEDNQWMT — higher, 3.61
- FSPNSPQPNVSGPGLLEEDNQWMT — higher, 3.47
- FSPNSPQHNVSGPGLLEEDNQWMT — higher, 3.77
- FSPNSPQFNVEGPGLLEEDNQWMT — higher, 3.4
- FSPNSPQFNVCGPGLLEEDNQWMT — higher, 2.54
- FSPNSPQFNVMGPGLLEEDNQWMT — higher, 2.16
- FSPNSPQFNVQGPGLLEEDNQWMT — higher, 3.09
- FSPNSPQFNVRGPGLLEEDNQWMT — higher, 2.62
- FSPNSPQFNVSGPQLLEEDNQWMT — higher, 2.74
- FSPNSPQFNVSGPMLLEEDNQWMT — higher, 2.35
- FDPNSPQFNVSGPGLLEEDNQWMT — higher, 4.21
- FAPNSPQFNVSGPGLLEEDNQWMT — lower, 1.79
- FLPNSPQFNVSGPGLLEEDNQWMT — higher, 3.37
- FSPASPQFNVSGPGLLEEDNQWMT — higher, 3.25
- FSPWSPQFNVSGPGLLEEDNQWMT — higher, 2.25
- FSPMSPQFNVSGPGLLEEDNQWMT — higher, 2.45
- FSPTSPQFNVSGPGLLEEDNQWMT — higher, 3.2
- FSPDSPQFNVSGPGLLEEDNQWMT — higher, 3.79
- FSPVSPQFNVSGPGLLEEDNQWMT — higher, 3.03
- FSPNSPQFNVSHPGLLEEDNQWMT — higher, 2.62
- FSPNSPQFNVSFPGLLEEDNQWMT — higher, 2.21
- FSPNSPQFNVSSPGLLEEDNQWMT — higher, 3.13
- FSPNSPQFNVSWPGLLEEDNQWMT — lower, 1.74
- FSPNSPQFNVSGPGLLEEDNQWWT — higher, 2.35
- FSPNSPQFNVSGPGLLEEDNQWVT — higher, 2.71
- FSPNSPQFNVSGPGLLEEDNQWFT — higher, 2.44
- FSPNSPQFNVSGPGLLEEDNQWAT — higher, 3.66
- FSPNSPQFNVSGPGLLNEDNQWMT — higher, 2.33
- FSPNSPQFNVSGPGLLSEDNQWMT — higher, 2.98
- FSPNSPQFNVSGPGLLCEDNQWMT — higher, 2.04
- FSPNSPQFNVSGPGLLFEDNQWMT — lower, 1.69
- FSPNSPQFNVSGPGLLGEDNQWMT — higher, 2.49
- FSPNSPQFNVSGPGLLMEDNQWMT — higher, 2.54
- FSPNSPQFNVSGPGLLEEDNFWMT — lower, 1.87
- FSPNSPQFNVSGPGLLEEDNYWMT — higher, 2.29
- FSPNSPQFNVSGPGLLEEDNMWMT — lower, 1.84
- FSPNSPQFNVSGPGLLEEDNPWMT — higher, 2
- FSPNSPQFNVSGPGLLEEDNQWML — higher, 3
- FSPNSPQFNVSGPGLLEEDNQWME — higher, 3.92
- FSPNSPQFNVSGPGLLEEDNQWMS — higher, 3.27
- FSPNSPQFNVSGPGLLEEDNQWMW — lower, 1.69

Variants of: B2
Assay: as above
Details: c terminus: a fixed tail appended

Point of comparison: RVRPLARVTSLANLISPVRNAAVR, protein stability index 3.62. Against it:
- RVRPLARVTSLANLISPVRNGSVR — lower, 3.37
- RVRPLARVTSLANLISPVRNGFVR — lower, 2.4
- RVRPLARVTSLANLISPVRNGKVR — lower, 3.36
- RVRPLARVTSLANLISPVRNGPVR — lower, 3.49
- RVRPLARVTSLANLISPVRNGHVR — lower, 3.03
- RVRPLARVTSLANLISPVRNGMVR — lower, 2.25
- RVRPLARVTSLANLISPVRNGYVR — lower, 2.54
- RVRPLARVTSLANLISPVRNGLVR — lower, 2.62
- RVRPLARVTSLANLISPVRNGVVR — lower, 2.75
- RVRPLARVTSLANLISPVRNGDVR — lower, 3.35
- RVRPLARVTSLANLISPVRNGEVR — lower, 3.52
- RVRPLARVTSLANLISPVRNGRVR — lower, 3.36
- RVRPLARVTSLANLISPVRNGIVR — lower, 2.76
- RVRPLARVTSLANLISPVRNGQVR — higher, 3.69
- RVRPLARVTSLANLISPVRNGGVR — lower, 3.18
- RVRPLARVTSLANLISPVRNGWVR — lower, 1.86
- RVRPLARVTSLANLISPVRNGNVR — lower, 3.02
- RVRPLARVTSLANLISPVRNGCVR — lower, 2.92
- RVRPLARVTSLANLISPVRNGTVR — lower, 3.46
- RVRPLARVTSLANLISPVRNSAVR — lower, 3.56
- RVRPLARVTSLANLISPVRNLAVR — lower, 2.68
- RVRPLARVTSLANLISPVRNIAVR — lower, 2.87
- RVRPLARVTSLANLISPVRNDAVR — lower, 2.55
- RVRPLARVTSLANLISPVRNPAVR — lower, 3.52
- RVRPLARVTSLANLISPVRNFAVR — lower, 2.42
- RVRPLARVTSLANLISPVRNMAVR — lower, 2.69
- RVRPLARVTSLANLISPVRNQAVR — lower, 3.12
- RVRPLARVTSLANLISPVRNHAVR — lower, 2.85
- RVRPLARVTSLANLISPVRNYAVR — lower, 2.82
- RVRPLARVTSLANLISPVRNCAVR — lower, 2.75
- RVRPLARVTSLANLISPVRNRAVR — lower, 2.42
- RVRPLARVTSLANLISPVRNTAVR — lower, 3.35
- RVRPLARVTSLANLISPVRNKAVR — lower, 2.71
- RVRPLARVTSLANLISPVRNVAVR — lower, 2.69
- RVRPLARVTSLANLISPVRNNAVR — lower, 2.88
- RVRPLARVTSLANLISPVRNEAVR — lower, 3.08
- RVRPLARVTSLANLISPVRNWAVR — lower, 2.31
- RVRPLARVTSLANLISPVRWGAVR — lower, 2.33
- RVRPLARVTSLANLISPVRLGAVR — lower, 3.29
- RVRPLARVTSLANLISPVRVGAVR — lower, 2.64
- RVRPLARVTSLANLISPVRQGAVR — higher, 3.75
- RVRPLARVTSLANLISPVRMGAVR — lower, 2.54
- RVRPLARVTSLANLISPVRPGAVR — lower, 2.94
- RVRPLARVTSLANLISPVRYGAVR — lower, 2.52
- RVRPLARVTSLANLISPVRTGAVR — lower, 2.79
- RVRPLARVTSLANLISPVRIGAVR — lower, 2.66
- RVRPLARVTSLANLISPVRRGAVR — lower, 2.57
- RVRPLARVTSLANLISPVRKGAVR — lower, 2.49
- RVRPLARVTSLANLISPVRSGAVR — lower, 2.74
- RVRPLARVTSLANLISPVRNGAQR — higher, 3.73
- RVRPLARVTSLANLISPVRNGANR — higher, 3.68
- RVRPLARVTSLANLISPVRNGAGR — higher, 3.79
- RVRPLARVTSLANLISPVRNGALR — lower, 2.66
- RVRPLARVTSLANLISPVRNGATR — lower, 3.13
- RVRPLARVTSLANLISPVRNGAYR — lower, 2.9
- RVRPLARVTSLANLISPVRNGASR — lower, 3.4
- RVRPLARVTSLANLISPVRNGAIR — lower, 2.7
- RVRPLARVTSLANLISPVRNGARR — higher, 3.89
- RVRPLARVTSLANLISPVRNGAKR — higher, 3.99
- RVRPLARVTSLANLISPVRNGADR — lower, 3.3
- RVRPLARVTSLANLISPVRNGACR — lower, 2.72
- RVRPLARVTSLANLISPVRNGAHR — lower, 3.43
- RVRPLARVTSLANLISPVRNGAER — lower, 2.79
- RVRPLARVTSLANLISPVRNGAFR — lower, 2.26
- RVRPLARVTSLANLISPVRNGAAR — lower, 3.08
- RVRPLARVTSLANLISPVRNGAPR — higher, 3.86
- RVRPLARVTSLANLISPVRNGAMR — lower, 3.22
- RVRPLARVTSLANLISPVRNGAWR — lower, 2.4
- RVRPLARVTSLANLISPVRNGAVQ — lower, 3.37
- RVRPLARVTSLANLISPVRNGAVN — lower, 2.91
- RVRPLARVTSLANLISPVRNGAVH — lower, 2.38
- RVRPLARVTSLANLISPVRNGAVD — lower, 3.37
- RVRPLARVTSLANLISPVRNGAVK — lower, 3.47
- RVRPLARVTSLANLISPVRNGAVY — lower, 1.88
- RVRPLARVTSLANLISPVRNGAVI — lower, 2.54
- RVRPLARVTSLANLISPVRNGAVM — lower, 2.19
- RVRPLARVTSLANLISPVRNGAVF — lower, 2.44
- RVRPLARVTSLANLISPVRNGAVC — lower, 3.21
- RVRPLARVTSLANLISPVRNGAVL — lower, 2.2
- RVRPLARVTSLANLISPVRNGAVW — lower, 2.44
- RVRPLARVTSLANLISPVRNGAVS — lower, 2.74
- RVRPLARVTSLANLISPVRNGAVG — lower, 2.93
- RVRPLARVTSLANLISPVRNGAVV — lower, 2.63
- RVRPLARVTSLANLISPVRNGAVT — lower, 2.39
- RVRPLARVTSLANLISPVRNGAVE — higher, 3.8
- RVRPLARVTSLANLISPVRNGAVA — lower, 2.98
- RVRPLARVTSLANLISPVRNGAVP — lower, 2.93
